Molecular target: T1, NRT1.1-His (Arabidopsis thaliana, UniProt Q05085 1-590)
T1 sequence (looked up): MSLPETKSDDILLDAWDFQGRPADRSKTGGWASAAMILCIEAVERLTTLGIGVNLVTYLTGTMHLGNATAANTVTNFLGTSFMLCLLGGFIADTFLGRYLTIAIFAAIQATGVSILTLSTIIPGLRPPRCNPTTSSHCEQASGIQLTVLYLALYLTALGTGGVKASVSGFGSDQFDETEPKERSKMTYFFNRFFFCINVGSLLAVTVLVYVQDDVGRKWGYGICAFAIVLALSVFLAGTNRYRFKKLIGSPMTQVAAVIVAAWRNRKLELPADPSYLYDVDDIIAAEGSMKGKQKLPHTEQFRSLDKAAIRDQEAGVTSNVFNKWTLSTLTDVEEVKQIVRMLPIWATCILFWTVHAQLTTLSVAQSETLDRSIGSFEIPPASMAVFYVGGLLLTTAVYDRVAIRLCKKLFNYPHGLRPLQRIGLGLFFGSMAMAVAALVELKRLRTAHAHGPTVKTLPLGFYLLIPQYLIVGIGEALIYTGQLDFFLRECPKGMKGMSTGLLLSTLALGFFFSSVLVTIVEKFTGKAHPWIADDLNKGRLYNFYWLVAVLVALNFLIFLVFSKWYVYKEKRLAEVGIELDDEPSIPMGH
Test: pull-down

B1: CPK6-GST (enzyme, Arabidopsis thaliana, UniProt Q38872 1-544, looked up)
chain: MGNSCRGSFKDKIYEGNHSRPEENSKSTTTTVSSVHSPTTDQDFSKQNTNPALVIPVKEPIMRRNVDNQSYYVLGHKTPNIRDLYTLSRKLGQGQFGTTYLCTDIATGVDYACKSISKRKLISKEDVEDVRREIQIMHHLAGHKNIVTIKGAYEDPLYVHIVMELCAGGELFDRIIHRGHYSERKAAELTKIIVGVVEACHSLGVMHRDLKPENFLLVNKDDDFSLKAIDFGLSVFFKPGQIFKDVVGSPYYVAPEVLLKHYGPEADVWTAGVILYILLSGVPPFWAETQQGIFDAVLKGYIDFDTDPWPVISDSAKDLIRKMLCSSPSERLTAHEVLRHPWICENGVAPDRALDPAVLSRLKQFSAMNKLKKMALKVIAESLSEEEIAGLRAMFEAMDTDNSGAITFDELKAGLRRYGSTLKDTEIRDLMEAADVDNSGTIDYSEFIAATIHLNKLEREEHLVSAFQYFDKDGSGYITIDELQQSCIEHGMTDVFLEDIIKEVDQDNDGRIDYEEFVAMMQKGNAGVGRRTMKNSLNISMRDV
binding result: binds

Source: publication doi:10.1101/2022.10.06.511240 (bioRxiv, 2022)
